Measured values as given in paper PMC4517634.

Assays:
[1] = biological target: human cathepsin L (human)
[2] = biological target: human cathepsin G (human) (UniProt P08311)
Sequence of human cathepsin G (human) (P08311 21-244): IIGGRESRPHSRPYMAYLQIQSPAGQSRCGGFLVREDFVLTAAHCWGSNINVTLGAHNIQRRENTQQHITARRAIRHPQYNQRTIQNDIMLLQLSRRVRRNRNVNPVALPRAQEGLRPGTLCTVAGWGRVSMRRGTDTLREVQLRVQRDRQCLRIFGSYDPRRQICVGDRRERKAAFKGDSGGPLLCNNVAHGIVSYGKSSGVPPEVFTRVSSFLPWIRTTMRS

recombinant His-tagged ANISERP protein (baculovirus system) (from UniProt F4MST7 1-397) (natural protein)
IC50 of inhibition of trypsin (54 nM) proteolytic activity on Boc-Gln-Ala-Arg-AMC (human trypsin (human)): 0.173 µM | IC50 of inhibition of thrombin (74 nM) proteolytic activity on Boc-Val-Arg-AMC after 10 min at 37 °C with ANISERP (human thrombin (human)): 0.152 µM | IC50 of inhibition of cathepsin L (0.83 nM) proteolytic activity on Z-Phe-Arg-AMC [1]: 0.217 µM | IC50 of inhibition of cathepsin G (0.33 nM) proteolytic activity on N-succinyl-Ala-Ala-Phe-AMC [2]: 0.542 µM
